Data taken from US20180155451A1 (published 2018).

T1: FcγRIIb extracellular domain with C-terminal His tag (human, UniProt P31994 43-217)
T1 construct: extracellular domain; Soluble receptor expressed in FreeStyle293 cells and used as analyte in Biacore; also called FcgRIIb; 2b; not shown: His tag at the C terminus
T1 sequence (looked up): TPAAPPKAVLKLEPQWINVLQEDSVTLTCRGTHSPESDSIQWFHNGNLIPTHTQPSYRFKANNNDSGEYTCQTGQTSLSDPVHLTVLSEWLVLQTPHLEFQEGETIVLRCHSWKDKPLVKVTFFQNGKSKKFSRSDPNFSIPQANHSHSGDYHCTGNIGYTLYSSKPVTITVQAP

T2: FcγRIIa H (human, UniProt P12318 34-217)
T2 construct: extracellular domain; Soluble His-tagged extracellular domain expressed in FreeStyle293 cells; also called FcγRIIa type H; FcgRIIa H; not shown: His tag attached to the C terminus
T2 sequence (looked up): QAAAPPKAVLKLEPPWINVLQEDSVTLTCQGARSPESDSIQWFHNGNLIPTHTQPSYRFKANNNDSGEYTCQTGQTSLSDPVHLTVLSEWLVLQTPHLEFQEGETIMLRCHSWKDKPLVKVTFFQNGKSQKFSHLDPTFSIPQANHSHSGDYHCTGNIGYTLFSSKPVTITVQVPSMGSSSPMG

T3: FcγRIIb (human, UniProt P31994 43-217)
T3 construct: extracellular domain; Soluble His-tagged extracellular domain expressed in FreeStyle293 cells; also called FcgRIIb; 2b; not shown: His tag attached to the C terminus
T3 sequence (looked up): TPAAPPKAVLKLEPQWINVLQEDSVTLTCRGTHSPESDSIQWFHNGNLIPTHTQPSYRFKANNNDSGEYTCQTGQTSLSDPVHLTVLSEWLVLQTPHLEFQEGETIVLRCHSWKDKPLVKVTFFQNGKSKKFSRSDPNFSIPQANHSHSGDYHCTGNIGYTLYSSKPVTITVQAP


Assays:
[1] = target: T4, FcγRIa extracellular domain with C-terminal His tag (human, UniProt P12314 16-292); assay: SPR Biacore; relative binding to FcγRIa divided by that to FcγRIIb
T4 construct: extracellular domain; Soluble receptor expressed in FreeStyle293 cells and used as analyte in Biacore; also called FcgRI; 1a; not shown: His tag at the C terminus
T4 sequence (P12314 16-292): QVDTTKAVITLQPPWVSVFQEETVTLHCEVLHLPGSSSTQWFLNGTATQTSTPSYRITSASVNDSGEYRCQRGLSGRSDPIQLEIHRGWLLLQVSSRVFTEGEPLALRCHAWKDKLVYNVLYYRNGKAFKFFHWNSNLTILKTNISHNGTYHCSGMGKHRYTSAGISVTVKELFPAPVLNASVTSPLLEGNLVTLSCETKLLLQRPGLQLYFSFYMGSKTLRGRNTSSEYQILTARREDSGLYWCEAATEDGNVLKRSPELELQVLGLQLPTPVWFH

[2] = target: T1, FcγRIIb extracellular domain with …; assay: SPR Biacore, relative binding amount
[3] = target: T4, FcγRIa extracellular domain with …; assay: SPR Biacore, relative binding amount
FcγRIIa H [4] = target: T2, FcγRIIa H; assay: SPR (Biacore); He/Con_2aH divided by He/Con_2b (FcγRIIb) of the same antibody
FcγRIIa H [5] = target: T2, FcγRIIa H; assay: SPR (Biacore), captured antibody, FcγR analyte; relative to GpH7-A5/GpH7-B3/GpL16-k0 = 100
Procedure: (§1) The heterodimerized antibodies He Abs in which one of the H chains was introduced with an alteration were assayed for their binding activities to each activating FcγR and inhibitory FcγR according to the method described in Example 4. […] The activating FcγRs in FIGS. 26, 27, 28, and 29 are FcγRIa, FcγRIIa (R), FcγRIIa (H), and FcγRIIIa, respectively.
(§2) Analysis of interaction between objective antibody and the FcγR was carried out using Biacore T100 (GE Healthcare). HBS-EP+ (GE Healthcare) was used as the running buffer, and the measurement temperature was set to 25° C. Chips produced by immobilizing the antigen peptide by the amine coupling method to a Series S Sencor Chip CM5 (GE Healthcare), or alternatively, chips produced by allowing preliminarily biotinylated antigen peptides to interact with and immobilize onto a Series S Sensor Chip SA (certified) (GE Healthcare) were used. Antibodies of interest were captured onto an antigen peptide-immobilized chip, and allowed to interact to each FcγR diluted with running buffer. To regenerate and repeatedly use the chip, the antibodies captured on the chip were washed off by reacting 10 mM glycine-HCl, pH 1.5.

FcγRIIb = target: T3, FcγRIIb; assay: as above
Procedure: as §1, §2

| Binder | Ia/IIb He_1a/2b [1] | He/Con_2b [2] | He/Con_1a [3] | He_2aH/2b (FcγRIIa H [4]) | He/Con_2aH (FcγRIIa H [5]) | He/Con_2b (FcγRIIb) |
| --- | --- | --- | --- | --- | --- | --- |
| heterodimerized antibody GpH7-A5/GpH7-B3 variant Y296_01G/GpL16-k0 (antibody, human IgG1, kappa, Substitution in only one H chain (GpH7-B3 side); also called He Ab) heavy 1: not shown heavy 2: not shown light: DIVMTQSPLSLPVTPGEPASISCQASESLVHSNRNTYLHWYLQKPGQSPQLLIYKVSNRFSGVPDRFSGSGSGTDFTLKISRVEAEDVGVYYCSQNTHVPPTFGQGTKVEIERTVAAPSVFIFPPSDEQLKSGTASVVCLLNNFYPREAKVQWKVDNALQSGNSQESVTEQDSKDSTYSLSSTLTLSKADYEKHKVYACEVTHQGLSSPVTKSFNRGEC | 1.29 ratio of He/Con_1a to He/Con_2b | 79.3 % of GpH7-A5/GpH7-B3/GpL16-k0 (=100) | 103 % of GpH7-A5/GpH7-B3/GpL16-k0 (=100) | – | – | – |
| GpH7-A5/GpH7-B3 variant N325_02A/GpL16-k0 (antibody, human IgG1, kappa, Heterodimerized anti-glypican-3 IgG1; mutation in the GpH7-B3 H chain only; also called He Ab) heavy 1: not shown heavy 2: not shown light: DIVMTQSPLSLPVTPGEPASISCQASESLVHSNRNTYLHWYLQKPGQSPQLLIYKVSNRFSGVPDRFSGSGSGTDFTLKISRVEAEDVGVYYCSQNTHVPPTFGQGTKVEIERTVAAPSVFIFPPSDEQLKSGTASVVCLLNNFYPREAKVQWKVDNALQSGNSQESVTEQDSKDSTYSLSSTLTLSKADYEKHKVYACEVTHQGLSSPVTKSFNRGEC | – | – | – | 0.74 ratio | 47.6 relative (control = 100) | 64.4 relative (control = 100) |
| GpH7-A5/GpH7-B3 variant N325_04F/GpL16-k0 (antibody, human IgG1, kappa, Heterodimerized anti-glypican-3 IgG1; mutation in the GpH7-B3 H chain only; also called He Ab) heavy 1: not shown heavy 2: not shown light: DIVMTQSPLSLPVTPGEPASISCQASESLVHSNRNTYLHWYLQKPGQSPQLLIYKVSNRFSGVPDRFSGSGSGTDFTLKISRVEAEDVGVYYCSQNTHVPPTFGQGTKVEIERTVAAPSVFIFPPSDEQLKSGTASVVCLLNNFYPREAKVQWKVDNALQSGNSQESVTEQDSKDSTYSLSSTLTLSKADYEKHKVYACEVTHQGLSSPVTKSFNRGEC | – | – | – | 0.23 ratio | 33.4 relative (control = 100) | 143 relative (control = 100) |
| heterodimerized antibody GpH7-A5/GpH7-B3 variant Q295_18N/GpL16-k0 (antibody, human IgG1, kappa, Substitution in only one H chain (GpH7-B3 side); also called He Ab) heavy 1: not shown heavy 2: not shown light: DIVMTQSPLSLPVTPGEPASISCQASESLVHSNRNTYLHWYLQKPGQSPQLLIYKVSNRFSGVPDRFSGSGSGTDFTLKISRVEAEDVGVYYCSQNTHVPPTFGQGTKVEIERTVAAPSVFIFPPSDEQLKSGTASVVCLLNNFYPREAKVQWKVDNALQSGNSQESVTEQDSKDSTYSLSSTLTLSKADYEKHKVYACEVTHQGLSSPVTKSFNRGEC | 1.58 ratio of He/Con_1a to He/Con_2b | 64.9 % of GpH7-A5/GpH7-B3/GpL16-k0 (=100) | 102 % of GpH7-A5/GpH7-B3/GpL16-k0 (=100) | – | – | – |
| GpH7-A5/GpH7-B3 variant N325_10E/GpL16-k0 (antibody, human IgG1, kappa, Heterodimerized anti-glypican-3 IgG1; mutation in the GpH7-B3 H chain only; also called He Ab) heavy 1: not shown heavy 2: not shown light: DIVMTQSPLSLPVTPGEPASISCQASESLVHSNRNTYLHWYLQKPGQSPQLLIYKVSNRFSGVPDRFSGSGSGTDFTLKISRVEAEDVGVYYCSQNTHVPPTFGQGTKVEIERTVAAPSVFIFPPSDEQLKSGTASVVCLLNNFYPREAKVQWKVDNALQSGNSQESVTEQDSKDSTYSLSSTLTLSKADYEKHKVYACEVTHQGLSSPVTKSFNRGEC | – | – | – | 0.55 ratio | 52.5 relative (control = 100) | 95.9 relative (control = 100) |
| GpH7-A5/GpH7-B3 variant K326_20W/GpL16-k0 (antibody, human IgG1, kappa, Heterodimerized anti-glypican-3 IgG1; mutation in the GpH7-B3 H chain only; also called He Ab) heavy 1: not shown heavy 2: not shown light: DIVMTQSPLSLPVTPGEPASISCQASESLVHSNRNTYLHWYLQKPGQSPQLLIYKVSNRFSGVPDRFSGSGSGTDFTLKISRVEAEDVGVYYCSQNTHVPPTFGQGTKVEIERTVAAPSVFIFPPSDEQLKSGTASVVCLLNNFYPREAKVQWKVDNALQSGNSQESVTEQDSKDSTYSLSSTLTLSKADYEKHKVYACEVTHQGLSSPVTKSFNRGEC | – | – | – | 0.56 ratio | 83.3 relative (control = 100) | 148 relative (control = 100) |
| GpH7-A5/GpH7-B3 variant N325_09D/GpL16-k0 (antibody, human IgG1, kappa, Heterodimerized anti-glypican-3 IgG1; mutation in the GpH7-B3 H chain only; also called He Ab) heavy 1: not shown heavy 2: not shown light: DIVMTQSPLSLPVTPGEPASISCQASESLVHSNRNTYLHWYLQKPGQSPQLLIYKVSNRFSGVPDRFSGSGSGTDFTLKISRVEAEDVGVYYCSQNTHVPPTFGQGTKVEIERTVAAPSVFIFPPSDEQLKSGTASVVCLLNNFYPREAKVQWKVDNALQSGNSQESVTEQDSKDSTYSLSSTLTLSKADYEKHKVYACEVTHQGLSSPVTKSFNRGEC | – | – | – | 0.43 ratio | 53.1 relative (control = 100) | 124 relative (control = 100) |
